Laboratory results: paper PMC13245405, “Stable inheritance of the Streptomyces linear plasmid SCP1 by dual ParABS partition systems” (Nucleic Acids Research, 2026)

Experiments:
ParB1 [1] = target: T1, ParB1 (Streptomyces coelicolor, UniProt Q9AD11, S110A); assay: CTP binding test in supplement; details: 1 mM CTP with parS1 if DSF as in methods
T1 construct: ParB1-His6, C-terminal His6 kept, pET21b, codon-optimized synthetic gene, E. coli Rosetta (BL21 DE3) pLysS; dimer

ParB2 [2] = target: T2, ParB2 (Streptomyces coelicolor, UniProt Q9ACT0, N55A); assay: CTP binding test in supplement; details: 1 mM CTP with parS2 if DSF as in methods
T2 construct: ParB2-His6, C-terminal His6 kept, pET21b, codon-optimized synthetic gene, E. coli Rosetta (BL21 DE3) pLysS; dimer

ParB2 [3] = target: T3, ParB2 (Streptomyces coelicolor, UniProt Q9ACT0, R57A); assay: CTP binding test in supplement; details: 1 mM CTP with parS2 if DSF as in methods
T3 construct: ParB2-His6, C-terminal His6 kept, pET21b, codon-optimized synthetic gene, E. coli Rosetta (BL21 DE3) pLysS; dimer

ParB1 [4] = target: T4, ParB1 (Streptomyces coelicolor, UniProt Q9AD11, N54A); assay: CTP binding test in supplement; details: 1 mM CTP with parS1 if DSF as in methods
T4 construct: ParB1-His6, C-terminal His6 kept, pET21b, codon-optimized synthetic gene, E. coli Rosetta (BL21 DE3) pLysS; dimer

ParB1 [5] = target: T5, ParB1 (Streptomyces coelicolor, UniProt Q9AD11); assay: isothermal titration calorimetry; type: binding
T5 construct: ParB1-His6, C-terminal His6 kept, pET21b, codon-optimized synthetic gene, E. coli Rosetta (BL21 DE3) pLysS; dimer

ParB1 [6] = target: T6, ParB1 (Streptomyces coelicolor, UniProt Q9AD11, S109A); assay: CTP binding test in supplement; details: 1 mM CTP with parS1 if DSF as in methods
T6 construct: ParB1-His6, C-terminal His6 kept, pET21b, codon-optimized synthetic gene, E. coli Rosetta (BL21 DE3) pLysS; dimer

ParB2 [7] = target: T7, ParB2 (Streptomyces coelicolor, UniProt Q9ACT0); assay: differential scanning fluorimetry (Tycho); type: binding; details: 1 mM CTP, 4 µM ParB2 dimer, with 2 µM parS2 DNA; 100 mM Tris-HCl, 250 mM NaCl, 1 mM MgCl2, 5% glycerol, pH 8.0
T7 construct: ParB2-His6, C-terminal His6 kept, pET21b, codon-optimized synthetic gene, E. coli Rosetta (BL21 DE3) pLysS; dimer

ParB2 [8] = target: T7, ParB2; assay: isothermal titration calorimetry; type: binding
[9] = target: T8, ParB1-His6 WT (Streptomyces coelicolor A3(2), plasmid SCP1) (UniProt Q9AD11); assay: BLI; details: 1 mM CTP; BLI: 100 mM Tris-HCl pH 8, 100 mM NaCl, 1 mM MgCl2, 0.005% Tween 20, 25 C; ParB 0.0625-2 uM (50 bp) or 1 uM (190 bp)
T8 sequence: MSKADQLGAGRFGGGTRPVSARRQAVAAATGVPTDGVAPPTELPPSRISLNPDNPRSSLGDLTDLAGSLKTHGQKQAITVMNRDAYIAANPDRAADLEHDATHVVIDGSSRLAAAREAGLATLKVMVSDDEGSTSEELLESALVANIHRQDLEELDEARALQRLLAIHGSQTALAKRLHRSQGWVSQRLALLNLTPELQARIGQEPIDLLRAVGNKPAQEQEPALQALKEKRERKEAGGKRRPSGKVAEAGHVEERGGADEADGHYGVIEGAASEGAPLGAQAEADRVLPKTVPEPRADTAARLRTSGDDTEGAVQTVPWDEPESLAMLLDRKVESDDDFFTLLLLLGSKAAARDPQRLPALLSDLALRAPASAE

[10] = target: T9, ParB2-His6 WT (Streptomyces coelicolor A3(2), plasmid SCP1) (UniProt Q9ACT0); assay: BLI; details: 1 mM CTP; BLI: 100 mM Tris-HCl pH 8, 100 mM NaCl, 1 mM MgCl2, 0.005% Tween 20, 25 C; ParB 0.0625-2 uM (50 bp) or 1 uM (190 bp)
T9 sequence: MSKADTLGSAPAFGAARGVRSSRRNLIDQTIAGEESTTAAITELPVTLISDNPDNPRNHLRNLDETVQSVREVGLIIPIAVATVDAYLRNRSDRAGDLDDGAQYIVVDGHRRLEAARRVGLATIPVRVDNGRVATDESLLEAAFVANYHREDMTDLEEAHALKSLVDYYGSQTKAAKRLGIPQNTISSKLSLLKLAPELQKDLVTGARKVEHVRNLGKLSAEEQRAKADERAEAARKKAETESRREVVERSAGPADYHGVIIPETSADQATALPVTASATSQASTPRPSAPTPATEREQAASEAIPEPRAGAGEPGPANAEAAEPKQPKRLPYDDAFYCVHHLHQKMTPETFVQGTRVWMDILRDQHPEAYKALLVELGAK

ParB2-His6 WT = target: T10, ParB2-His6 WT (Streptomyces coelicolor A3(2), plasmid …, UniProt Q9ACT0 1-381); assay: BLI; no CTP; BLI: 100 mM Tris-HCl pH 8, 100 mM NaCl, 1 mM MgCl2, 0.005% Tween 20, 25 C; ParB 0.0625-2 uM (50 bp) or 1 uM (190 bp); details: protein: recombinant; tags: C-terminal His6; chain copies: 2; label: 5' biotin on strand 1; blunt
T10 sequence: T9 sequence

ParB1-His6 WT = target: T11, ParB1-His6 WT (Streptomyces coelicolor A3(2), plasmid …, UniProt Q9AD11 1-375); assay: as above; details: protein: recombinant, tags: C-terminal His6, chain copies: 2, label: 5' biotin on strand 1, blunt
T11 sequence: T8 sequence

His6-ScParB WT = target: T12, His6-ScParB WT (Streptomyces coelicolor, UniProt Q9S6U1 1-328); assay: as above; details: protein: recombinant, tags: N-terminal His6, chain copies: 2, label: 5' biotin on strand 1, blunt
T12 sequence: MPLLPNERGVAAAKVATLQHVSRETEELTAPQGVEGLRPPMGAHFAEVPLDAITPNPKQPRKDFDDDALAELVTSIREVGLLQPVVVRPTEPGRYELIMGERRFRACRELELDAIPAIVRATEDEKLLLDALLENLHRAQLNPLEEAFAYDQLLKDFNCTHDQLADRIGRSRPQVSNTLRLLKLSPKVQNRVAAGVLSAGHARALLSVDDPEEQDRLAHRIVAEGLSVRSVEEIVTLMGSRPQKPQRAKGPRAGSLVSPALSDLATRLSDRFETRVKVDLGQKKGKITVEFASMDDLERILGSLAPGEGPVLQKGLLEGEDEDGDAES

[11] = printed strands give one G:G mismatch at site centre

T4 sequence (Q9AD11 entry or part of it N54A): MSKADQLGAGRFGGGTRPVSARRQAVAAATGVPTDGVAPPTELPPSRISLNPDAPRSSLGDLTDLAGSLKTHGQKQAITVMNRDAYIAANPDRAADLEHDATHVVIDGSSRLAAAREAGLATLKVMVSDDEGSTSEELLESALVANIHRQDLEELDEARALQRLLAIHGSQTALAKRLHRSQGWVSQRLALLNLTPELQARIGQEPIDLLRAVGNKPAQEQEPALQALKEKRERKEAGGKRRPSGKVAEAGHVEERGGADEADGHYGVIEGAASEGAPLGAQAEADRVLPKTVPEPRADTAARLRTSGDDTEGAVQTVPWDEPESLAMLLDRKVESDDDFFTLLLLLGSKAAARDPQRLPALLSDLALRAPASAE
T2 sequence (Q9ACT0 entry or part of it N55A): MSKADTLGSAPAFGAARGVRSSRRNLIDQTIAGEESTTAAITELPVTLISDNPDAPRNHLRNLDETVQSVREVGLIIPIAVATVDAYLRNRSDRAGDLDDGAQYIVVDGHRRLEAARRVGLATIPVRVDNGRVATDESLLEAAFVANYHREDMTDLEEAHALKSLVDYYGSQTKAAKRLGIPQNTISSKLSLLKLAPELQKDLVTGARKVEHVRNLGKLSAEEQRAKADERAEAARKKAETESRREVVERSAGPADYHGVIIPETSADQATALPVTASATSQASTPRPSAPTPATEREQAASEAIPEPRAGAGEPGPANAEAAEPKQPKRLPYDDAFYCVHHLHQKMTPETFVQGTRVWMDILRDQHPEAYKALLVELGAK
T1 sequence (Q9AD11 entry or part of it S110A): as the sequence (Q9AD11 entry or part of it N54A) above, with A54N, S110A counted along it
T6 sequence (Q9AD11 entry or part of it S109A): as the sequence (Q9AD11 entry or part of it N54A) above, with A54N, S109A counted along it
T3 sequence (Q9ACT0 entry or part of it R57A): as the sequence (Q9ACT0 entry or part of it N55A) above, with A55N, R57A counted along it

Molecule: Nc1ccn([C@@H]2O[C@H](COP(=O)(O)OP(=O)(O)OP(=O)(O)O)[C@@H](O)[C@H]2O)c(=O)n1 [CTP]
- CTP binding test in supplement (ParB1 [1]): ParB1 N54A, S109A, and S110A or ParB2 N55A and R57A still bound CTP
- CTP binding test in supplement (ParB2 [2]): ParB1 N54A, S109A, and S110A or ParB2 N55A and R57A still bound CTP
- CTP binding test in supplement (ParB2 [3]): ParB1 N54A, S109A, and S110A or ParB2 N55A and R57A still bound CTP
- CTP binding test in supplement (ParB1 [4]): ParB1 N54A, S109A, and S110A or ParB2 N55A and R57A still bound CTP
- Kd (ParB1 [5]): 31.6 ± 17.8 µM
- CTP binding test in supplement (ParB1 [6]): ParB1 N54A, S109A, and S110A or ParB2 N55A and R57A still bound CTP
- differential scanning fluorimetry (Tycho) (ParB2 [7]): only when ParB1 or ParB2 was incubated with both their cognate parS site and CTP

Molecule: Nc1ccn([C@@H]2O[C@H](COP(=O)(O)OP(=O)(O)OP(O)(O)=S)[C@@H](O)[C@H]2O)c(=O)n1 [CTPγS]
- Kd (ParB2 [8]): 12.5 ± 5.05 µM
- Kd (ParB1 [5]): 28.2 ± 5.9 µM

Molecule: parS1 190-bp closed loop
- binding signal (fold BLI signal vs no CTP) [9]: 4

Molecule: parS2 190-bp closed loop
- binding signal (fold BLI signal vs no CTP) [10]: 3

B1: ScparS 50 bp (dsDNA)
DNA 1: TCGGGGATGGTGTTTCGCGTTTCACGTGAAACAACCCCAGCGTACCGGGC
DNA 2: GCCCGGTACGCTGGGGTTGTTTCACGTGAAACGCGAAACACCATCCCCGA
- binding result (ParB2-His6 WT): no binding
- binding result (ParB1-His6 WT): no binding
- Kd (His6-ScParB WT): 0.331 ± 0.064 µM

B2: scrambled parS 50 bp (dsDNA)
DNA 1: GGCCCTGGGTATTCCCTCCGGGACTCGAAGGACGAACGACGCTCGCACAT
DNA 2: ATGTGCGAGCGTCGTTCGTCCTTCGAGTCCCGGAGGGAATACCCAGGGCC
- binding result (ParB2-His6 WT): no binding
- binding result (ParB1-His6 WT): no binding
- binding result (His6-ScParB WT): no binding

B3: parS2 50 bp (dsDNA)
DNA 1: AGCAGGCCCCGCCGATTATCACGGCGTGATAATCCCGGAGACGTCCGCTG
DNA 2: CAGCGGACGTCTCCGGGATTATCACGCCGTGATAATCGGCGGGGCCTGCT
- Kd (ParB2-His6 WT): 0.377 ± 0.055 µM
- binding result (His6-ScParB WT): no binding

B4: parS1 50 bp (dsDNA)
DNA 1: CTTCGGACGCGGCACCCTCTATTACGGCGTAATGGCCGTCTGCCTCATCC
DNA 2: GGATGAGGCAGACGGCCATTACGGCGTAATAGAGGGTGCCGCGTCCGAAG
- Kd (ParB1-His6 WT; [11]): 0.386 ± 0.042 µM
- binding result (His6-ScParB WT; [11]): no binding
